T1: 16 LAQDALNVPST
T1 construct: member of group m23; also called PepSpot spot 16
T1 peptide: LAQDALNVPST

T2: 07 AQPDAVNAPL
T2 construct: member of group m23; also called PepSpot spot 07
T2 peptide: AQPDAVNAPL

T3: 09 DAVNAPL
T3 construct: member of group m23; also called PepSpot spot 09
T3 peptide: DAVNAPL

T4: 11 EKLTGPDKAVT
T4 construct: member of group m23; also called PepSpot spot 11
T4 peptide: EKLTGPDKAVT

B1: monoclonal antibody 348-2C9 (antibody, V domains shown)
VH: EVQLQQSGPELVKPGASVKMSCKASGYTFTDYYMDWVKQSHGESFECIGRVNPYNGGTSYNQKFKGKATLTVDKSSSTAYMELNSLTSEDSAVYYCARLGSSYRWGQGTTLTVSS
VL: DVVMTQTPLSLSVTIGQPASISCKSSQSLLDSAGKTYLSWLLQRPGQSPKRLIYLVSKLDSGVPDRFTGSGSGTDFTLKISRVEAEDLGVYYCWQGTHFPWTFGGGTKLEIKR
notes: Mouse IgG2b from hybridoma, Protein-G purified; also called Clone 2C9; DSM ACC 2906
B2: monoclonal antibody 348-1D4 (antibody, V domains shown)
VH: B1 VH
VL: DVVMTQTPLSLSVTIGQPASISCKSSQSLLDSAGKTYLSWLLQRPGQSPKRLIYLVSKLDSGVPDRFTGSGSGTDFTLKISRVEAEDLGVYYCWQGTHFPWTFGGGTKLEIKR
notes: Mouse IgG2b from hybridoma, Protein-G purified; also called Clone 1D4; DSM ACC 2905
B3: monoclonal antibody 332-4B8 (antibody, V domains shown)
VH: EVQLQQSGPELEKPGASVKISCKASGYSFTGYNMNWVKQNNGKSLEWIGNITPYYGSTSYNQKFKGRVTLTVDKSSSTAYMQLKSLTSEDSAVYFCLLWLRRGDYAMDYWGQGTSVTVSS
VL: DVLMTQTPLSLPVSLGDQASISCKSSQSIVHSNGNTYLEWYLQKPGQSPKLLIYKVFNRFSGVPDRFSGSGSGTDFTLKISRVEAEDLGVYYCFQGSHVPYTFGGGTKLEIKR
notes: Mouse IgG1 from hybridoma, Protein-G purified; also called Clone 4B8; 322-4B8

Here are results for three molecules from patent publication US20100119478A1 (PROBIODRUG, published 2010).

One experiment has as its target T1, 16 LAQDALNVPST
Briefly: PepSpot membrane, peptide 1 µg/spot, antibody 1 µg/ml, AP-conjugated anti-mouse detection. How it is done: (§1) Corresponding PepSpot membranes were prepared by JPT Peptide Technologies GmbH, Berlin (JPT). On these membranes, peptides with the indicated amino acid sequences (see FIG. 3; Z represents pE) were immobilized at a concentration of 1 μg/spot.
(§2) For analysis, membranes were blocked for two hours with TBST-M (=TBST+5% skimmed milk) at room temperature with gentle shaking. Membranes were incubated over night at 4° C. on a rocking platform with the individual MCP-1 N1pE antibody clones diluted to 1 μg/ml in equal volumes of TBST-M. Secondary anti-mouse antibody conjugated with alkaline phosphatase was used for signal detection, following standard procedures.
Take B1: the binding result is listed as “no binding (tested: 1 µg peptide per spot)”.

As for B2, the binding result is on record as “no binding (tested: 1 µg peptide per spot)”.

Consider B3, for which the binding result is listed as “no binding (tested: 1 µg peptide per spot)”.

Another experiment has as its target T2, 07 AQPDAVNAPL
The description is as above. How it is done: as §1, §2
As for B1, the binding result is “no binding (tested: 1 µg peptide per spot)”.

For the molecule B2, the binding result was “no binding (tested: 1 µg peptide per spot)”.

For B3, the binding result was “no binding (tested: 1 µg peptide per spot)”.

Another experiment concerns the target T3, 09 DAVNAPL. The experiment is described as above. As to the method: as §1, §2
Consider B1, for which the binding result is on record as “no binding (tested: 1 µg peptide per spot)”.

With B2, the binding result is “no binding (tested: 1 µg peptide per spot)”.

As to B3, the binding result is given as “no binding (tested: 1 µg peptide per spot)”.

In the next experiment the target is T4, 11 EKLTGPDKAVT
The description is as above. As to the method: as §1, §2
On to B1, for which the binding result is reported as “no binding (tested: 1 µg peptide per spot)”.

For the molecule B2, the binding result is “no binding (tested: 1 µg peptide per spot)”.

As for B3, the binding result is given as “no binding (tested: 1 µg peptide per spot)”.
